The results in this text go back to US20190071480A1 (Biogen, published 2019).

For experiment [1], the target named is T1, extracellular domain of activin receptor type IIB (ActRIIBecd), biotinylated (Homo sapiens (Human), UniProt Q13705 27-117, amino-biotinylated with amine-PEG3-Biotin).
T1 construct: immobilised on a streptavidin-coated sensor chip; also called biotinylated ActRIIBecd; extracellular domain of ActRIIB
T1 sequence: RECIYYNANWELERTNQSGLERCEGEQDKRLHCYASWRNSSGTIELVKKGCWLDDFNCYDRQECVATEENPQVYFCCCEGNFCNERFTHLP
The experiment in a line: BIAcore SPR as Example 5 (method not restated); SD ±1.59 nM. How it is done: (§1) Biosensor experiments. In one embodiment, experiments were performed on a BIAcore™ T100/T200 instrument (Pharmacia Biosensor AB) in the multichannel mode (serial flow path involving flow cells 1+2+3+4). Flow rate was 10 μl/min; temperature was 25° C.; and data were recorded at 2.5 points/s. All four segments of a sensor chip CMS were coated with streptavidin (Sigma) to a density of 2000 pg/mm² (2000 resonance units) by the aminocoupling procedure. ActRIIBecd (10 mg) and amine-PEG3-Biotin (10 mg, Pierce, Rockford, Ill.) were dissolved in 200 μl H₂O and 10 mg NaCNBH₃ was added to prepare biotinylated ActRIIBecd. The reaction mixture was heated at 70° C. for 24 h, after that a further 10 mg NaCNBH₃ was added and the reaction was heated at 70° C. for another 24 h. After cooling to room temperature, the mixture was desalted with the spin column (3,000 molecular weight cut off (MWCO)). […] Sensograms were recorded during flow of the analyte (the ActRIIBecd-associated polypeptides (i.e., domains) as previously described) first through flow cell 1 (control) then through flow cell 2 (biotinylated ActRIIBecd). […] The sensograms obtained at 1.11, 3.33, 10, 30, and 90 nM analyte were evaluated for equilibrium binding, association rate, and dissociation rate by using the programs supplied with the instrument (BIA evaluation 2.1; Software Handbook. 1995; Pharmacia Biosensor AB).
In general terms: SPR reads the build-up and loss of mass on a sensor chip optically.

Experiment [2] deals with T1, extracellular domain of activin …. The experiment in a line: Mean KD column of Table 5; method not restated (BIAcore as Example 5); species also listed in Table 4. In short, it runs like this:
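Biotinylated ActRIIBecd captured on streptavidin-coated sensor chip (50-250 RU); analytes in glycine buffer pH 4.5 flowed at 10 μl/min, 25° C., at 1.11, 3.33, 10, 30 and 90 nM. Reference-cell-subtracted sensorgrams fitted for equilibrium binding, association and dissociation rates.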

For experiment [3] the target is unchanged. The experiment in a line: BIAcore SPR as Example 5 (method not restated); SD ±1.94 nM. How it is done:
as §1

Experiment [4] has the same target. The experiment in a line: BIAcore SPR as Example 5 (method not restated); SD ±1.84 nM. How it is done: as §1
Experiment [5] shares this target. The experiment in a line: BIAcore SPR as Example 5 (method not restated); SD ±1.11 nM. How it is done:
as §1

For experiment [6] the target is unchanged. The experiment in a line: BIAcore SPR as Example 5 (method not restated); SD ±2.36 nM. How it is done: as §1
For experiment [7] the target is unchanged. The experiment in a line: BIAcore SPR, biotinylated ActRIIBecd on chip; SD ±17.89 nM. How it is done: as §1
The target is the same in experiment [8]. The experiment in a line: BIAcore SPR, biotinylated ActRIIBecd on chip; SD ±16.78 nM. How it is done:
as §1

Experiment [9] has the same target. The experiment in a line: BIAcore SPR as Example 5 (method not restated); SD ±2.07 nM. How it is done:
as §1

The target is the same in experiment [10]. The experiment in a line: BIAcore SPR as Example 5 (method not restated); SD ±1.33 nM. How it is done: as §1
The target is the same in experiment [11]. The experiment in a line: BIAcore SPR as Example 5 (method not restated); SD ±3.33 nM. How it is done: as §1
For experiment [12] the target is unchanged. The experiment in a line: BIAcore SPR as Example 5 (method not restated); SD ±1.92 nM. How it is done: as §1
Experiment [13] has the same target. The experiment in a line: BIAcore SPR as Example 5 (method not restated); SD ±1.17 nM. How it is done: as §1
Experiment [14] shares this target. The experiment in a line: BIAcore SPR as Example 5 (method not restated); SD ±1.95 nM. How it is done:
as §1

Experiment [15] shares this target. The experiment in a line: BIAcore SPR as Example 5 (method not restated); SD ±2.63 nM. How it is done: as §1
The target is the same in experiment [16]. The experiment in a line: BIAcore SPR as Example 5 (method not restated); SD ±2.65 nM. How it is done: as §1
Experiment [17] has the same target. The experiment in a line: BIAcore SPR as Example 5 (method not restated); SD ±1.04 nM. How it is done:
as §1

For experiment [18] the target is unchanged. The experiment in a line: BIAcore SPR as Example 5 (method not restated); SD ±1.18 nM. How it is done: as §1

B1: SEQ ID NO: 324, cysteine pairs C15-C15^b, C79-C114^a, C80-C112^a, C44-C48^a (designed binder)
chain: AQAKHKQRKRLKSSCKRHPLYVDFKDVGWNDHAVAPPGYHAFYCHGECPFPLADHLNSDNHAIVQTKVNSVNSKIPKACCVPTELSAISMLYLDENEKVVLKNYQDMVVEGCGCR
modifications: disulfides C15-C15 (inter), C79-C114 (intra), C80-C112 (intra), C44-C48 (intra)
notes: homodimer by intermolecular disulfide
As for B1, the Kd in experiment [1] and in experiment [2] was 8.42 nM in each case.

B2: SEQ ID NO: 332, cysteine pairs C15-C15^b, C80-C114^b, C79-C112^b, C44-C48^a (designed binder)
chain: GQAKRKGYKRLKSSCKRHPLYVDFSDVGWNDWIVAPPGYHAFYCHGECPFPLADHLNSTNHAIVQTLVNSVNSKDPKACCVPTELSAPSPLYLDENEKPVLKNYQDMVVHGCGCR
modifications: disulfides C15-C15 (inter), C80-C114 (inter), C79-C112 (inter), C44-C48 (intra)
notes: as for B1
Regarding B2, the Kd in [2] and in experiment [3] was 7.42 nM throughout.

B3: SEQ ID NO: 332, cysteine pairs C15-C15^b, C80-C112^a, C79-C114^a, C44-C48^a (designed binder)
chain: B2 chain
modifications: disulfides C15-C15 (inter), C80-C112 (intra), C79-C114 (intra), C44-C48 (intra)
notes: as for B1
In the case of B3, the Kd in experiment [4] and in [2] was 7.18 nM each time.

B4: SEQ ID NO: 332, cysteine pairs C15-C15^b, C80-C114^a, C79-C112^a, C44-C48^a (designed binder)
chain: B2 chain
modifications: disulfides C15-C15 (inter), C80-C114 (intra), C79-C112 (intra), C44-C48 (intra)
notes: as for B1
As to B4, the Kd in experiment [2] and in [5] was 5.98 nM in each case.

B5: SEQ ID NO: 332, cysteine pairs C79-C80^a (designed binder)
chain: B2 chain
modifications: disulfides C79-C80 (intra)
For B5, the Kd in experiment [2] and in experiment [6] was 28.5 nM throughout.
On to VDFSDVGWNDWIVAPPGYHAFYCHGECPFPLADHLNSDNHAIVQTLVNSV [Clone No. 17 domain (ActRIIBecd-associated polypeptide)], for which, in experiment [7], the Kd (commonly the equilibrium constant for the complex coming apart) was 67.4 nM.
Regarding VDFSDVGWNDHAVAPPGYHAFYCHGECPFPLADHLNSTNHAIVQTLVNSV [Clone No. 18 domain (ActRIIBecd-associated polypeptide)], binding in experiment [8] was characterised by a dissociation constant (Kd) of 64.1 nM.

B6: SEQ ID NO: 308, cysteine pairs C8-C9^a (designed binder)
chain: NSKDPKACCVPTELSAPSPLYLDENEKPVLKNYQDMVVHGCGCRGQAKRKGYKRLKSSCKRHPLYVDFKDVGWNDHAVAPPGYHAFYCHGECPFPLADHLNSDNHAIVQTKVNSV
modifications: disulfides C8-C9 (intra)
As for B6, the Kd in experiment [9] and in experiment [2] was 31.2 nM each time.

B7: SEQ ID NO: 308, cysteine pairs C59-C59^b, C8-C43^a, C9-C41^a, C88-C92^a (designed binder)
chain: B6 chain
modifications: disulfides C59-C59 (inter), C8-C43 (intra), C9-C41 (intra), C88-C92 (intra)
notes: as for B1
B7: the Kd in [2] and in experiment [10] was 6.11 nM in each case.

B8: SEQ ID NO: 348, cysteine pairs C29-C30^a (designed binder)
chain: GQAKRKGYKRLKSSCKRHPLYNSKIPKACCVPTELSAISMLYLDENEKVVLKNYQDMVVEGCGCRVDFSDVGWNDWIVAPPGYHAFYCHGECPFPLADHLNSTNHAIVQTLVNSV
modifications: disulfides C29-C30 (intra)
Consider B8, for which the dissociation constant Kd in experiment [2] and in [11] was 29.1 nM each time.

B9: SEQ ID NO: 348, cysteine pairs C15-C15^b, C29-C64^a, C30-C62^a, C88-C92^a (designed binder)
chain: B8 chain
modifications: disulfides C15-C15 (inter), C29-C64 (intra), C30-C62 (intra), C88-C92 (intra)
notes: as for B1
As for B9, the Kd in [2] and in [12] was 6.77 nM in each case.

B10: SEQ ID NO: 340, cysteine pairs C15-C15^b, C29-C62^a, C30-C64^a, C88-C92^a (designed binder)
chain: AQAKHKQRKRLKSSCKRHPLYNSKDPKACCVPTELSAPSPLYLDENEKPVLKNYQDMVVHGCGCRVDFKDVGWNDHAVAPPGYHAFYCHGECPFPLADHLNSDNHAIVQTKVNSV
modifications: disulfides C15-C15 (inter), C29-C62 (intra), C30-C64 (intra), C88-C92 (intra)
notes: as for B1
With B10, the Kd in [2] and in experiment [13] was 5.77 nM throughout.

B11: SEQ ID NO: 340, cysteine pairs C15-C15^b, C29-C64^a, C30-C62^a, C88-C92^a (designed binder)
chain: B10 chain
modifications: disulfides C15-C15 (inter), C29-C64 (intra), C30-C62 (intra), C88-C92 (intra)
notes: as for B1
As for B11, the Kd in [14] and in experiment [2] was 7.19 nM throughout.

B12: SEQ ID NO: 340, cysteine pairs C15-C29^a (designed binder)
chain: B10 chain
modifications: disulfides C15-C29 (intra)
On to B12, for which the Kd in [2] and in experiment [15] was 30.1 nM each time.

B13: SEQ ID NO: 316, cysteine pairs C8-C67^a (designed binder)
chain: NSKDPKACCVPTELSAPSPLYLDENEKPVLKNYQDMVVHGCGCRVDFKDVGWNDHAVAPPGYHAFYCHGECPFPLADHLNSDNHAIVQTKVNSVGQAKRKGYKRLKSSCKRHPLY
modifications: disulfides C8-C67 (intra)
For the molecule B13, the Kd in [16] and in experiment [2] was 28.9 nM each time.

B14: SEQ ID NO: 316, cysteine pairs C67-C71^a, C8-C43^a, C9-C41^a, C109-C109^b (designed binder)
chain: B13 chain
modifications: disulfides C67-C71 (intra), C8-C43 (intra), C9-C41 (intra), C109-C109 (inter)
notes: as for B1
Consider B14, for which the Kd in experiment [2] and in [17] was 6.17 nM throughout.

B15: SEQ ID NO: 316, cysteine pairs C67-C71^a, C8-C43^b, C9-C41^b, C109-C109^b (designed binder)
chain: B13 chain
modifications: disulfides C67-C71 (intra), C8-C43 (inter), C9-C41 (inter), C109-C109 (inter)
notes: as for B1
Take B15: the dissociation constant (Kd) in experiment [18] and in [2] was 5.78 nM each time.
